Reference: patent US20140087995A1 (published 2014)
Numbered stars: 1 amine (or outer) side, 2 acyl side, 3 side chain; on linkers, the order of the positions; unused ones are H or OH. Bridge positions count the residues as written; N and C are the ends. Side chains are listed from the residue outwards. Ends that are not written are not given here. * marks the point of attachment. C20 diacid = O=C(O)CCCCCCCCCCCCCCCCCCC(=O)*; γGlu = O=C(O)[C@H](CCC(=O)[*:2])N[*:1]; AEEA = NCCOCCOCC(=O)O

T1: human calcitonin receptor (human, UniProt P30988 25-474)
T1 construct: whole, on cells; Used as cell membranes; also called hCTR; hCT
T1 sequence (looked up): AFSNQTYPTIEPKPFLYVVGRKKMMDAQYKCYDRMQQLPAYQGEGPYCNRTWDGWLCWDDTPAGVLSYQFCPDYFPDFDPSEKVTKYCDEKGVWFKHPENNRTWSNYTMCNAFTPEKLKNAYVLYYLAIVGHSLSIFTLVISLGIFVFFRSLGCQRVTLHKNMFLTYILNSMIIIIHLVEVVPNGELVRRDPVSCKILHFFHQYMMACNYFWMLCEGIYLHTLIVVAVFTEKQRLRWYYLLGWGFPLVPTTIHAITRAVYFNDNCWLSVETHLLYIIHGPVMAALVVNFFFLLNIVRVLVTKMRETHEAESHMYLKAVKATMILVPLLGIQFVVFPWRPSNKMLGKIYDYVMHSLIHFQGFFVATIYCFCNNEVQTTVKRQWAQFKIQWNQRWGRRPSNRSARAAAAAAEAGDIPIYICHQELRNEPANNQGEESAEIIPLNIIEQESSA


What was measured:
[1] = molecular target: T1, human calcitonin receptor; experiment: ratio of hCTR IC50 to hAmylin-R IC50 (reference: human amylin receptor)
Outline: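 Competition binding by SPA uses membrane preparations (35 ng/μL final) in pH 7.4 Hepes buffer with 1 mM CaCl2 and 5 mM MgCl₂. Incubation lasts 120 min at 25° C, and IC₅₀ comes from one-site fitting.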

[2] = molecular target: T1, human calcitonin receptor; experiment: SPA competition on BHK cell membranes, 125I-calcitonin as radioligand (Assay VII)
Outline: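 BHK hCTR membranes 35 ng/μL + SPA beads 0.05 mg/well; buffer 50 mM Hepes pH 7.4, 1 mM CaCl2, 5 mM MgCl₂, 0.1% OA, 0.02% Tween20. 120 min, 25° C., shaking. Scintillation count; IC50 by one-site binding competition.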

| Binder | Ratio hCT/hAmylin binding [1] | IC50 [2] |
| --- | --- | --- |
| K([γGlu-C20 diacid])CNTATCATQRLANFLRHSSPNFGAIPSSTNVGHNTY-NH2 (disulfide 2-7; N-terminus assumed; SMILES CC[C@H](C)[C@H](NC(=O)[C@H](C)NC(=O)CNC(=O)[C@H](Cc1ccccc1)NC(=O)[C@H](CC(N)=O)NC(=O)[C@@H]1CCCN1C(=O)[C@H](CO)NC(=O)[C@H](CO)NC(=O)[C@H](Cc1c[nH]cn1)NC(=O)[C@H](CCCNC(=N)N)NC(=O)[C@H](CC(C)C)NC(=O)[C@H](Cc1ccccc1)NC(=O)[C@H](CC(N)=O)NC(=O)[C@H](C)NC(=O)[C@H](CC(C)C)NC(=O)[C@H](CCCNC(=N)N)NC(=O)[C@H](CCC(N)=O)NC(=O)[C@@H](NC(=O)[C@H](C)NC(=O)[C@@H]1CSSC[C@H](NC(=O)[C@@H](N)CCCCNC(=O)CC[C@H](NC(=O)CCCCCCCCCCCCCCCCCCC(=O)O)C(=O)O)C(=O)N[C@@H](CC(N)=O)C(=O)N[C@@H]([C@@H](C)O)C(=O)N[C@@H](C)C(=O)N[C@@H]([C@@H](C)O)C(=O)N1)[C@@H](C)O)C(=O)N1CCC[C@H]1C(=O)N[C@@H](CO)C(=O)N[C@@H](CO)C(=O)N[C@H](C(=O)N[C@@H](CC(N)=O)C(=O)N[C@H](C(=O)NCC(=O)N[C@@H](Cc1c[nH]cn1)C(=O)N[C@@H](CC(N)=O)C(=O)N[C@H](C(=O)N[C@@H](Cc1ccc(O)cc1)C(N)=O)[C@@H](C)O)C(C)C)[C@@H](C)O, also called compound 77) [N^ε1-[(4S)-4-carboxy-4-(19-carboxynonadecanoylamino)butanoyl]-[Arg17,Pro21,Pro27,His34]-h-amylin] | 118 | 50.7 nM |
| K([AEEA-AEEA-γGlu-C20 diacid])CNTATCATQRLANFLRHSSPNFGAIPSSTNVGHNTY-NH2 (disulfide 2-7; N-terminus assumed; SMILES CC[C@H](C)[C@H](NC(=O)[C@H](C)NC(=O)CNC(=O)[C@H](Cc1ccccc1)NC(=O)[C@H](CC(N)=O)NC(=O)[C@@H]1CCCN1C(=O)[C@H](CO)NC(=O)[C@H](CO)NC(=O)[C@H](Cc1c[nH]cn1)NC(=O)[C@H](CCCNC(=N)N)NC(=O)[C@H](CC(C)C)NC(=O)[C@H](Cc1ccccc1)NC(=O)[C@H](CC(N)=O)NC(=O)[C@H](C)NC(=O)[C@H](CC(C)C)NC(=O)[C@H](CCCNC(=N)N)NC(=O)[C@H](CCC(N)=O)NC(=O)[C@@H](NC(=O)[C@H](C)NC(=O)[C@@H]1CSSC[C@H](NC(=O)[C@@H](N)CCCCNC(=O)COCCOCCNC(=O)COCCOCCNC(=O)CC[C@H](NC(=O)CCCCCCCCCCCCCCCCCCC(=O)O)C(=O)O)C(=O)N[C@@H](CC(N)=O)C(=O)N[C@@H]([C@@H](C)O)C(=O)N[C@@H](C)C(=O)N[C@@H]([C@@H](C)O)C(=O)N1)[C@@H](C)O)C(=O)N1CCC[C@H]1C(=O)N[C@@H](CO)C(=O)N[C@@H](CO)C(=O)N[C@H](C(=O)N[C@@H](CC(N)=O)C(=O)N[C@H](C(=O)NCC(=O)N[C@@H](Cc1c[nH]cn1)C(=O)N[C@@H](CC(N)=O)C(=O)N[C@H](C(=O)N[C@@H](Cc1ccc(O)cc1)C(N)=O)[C@@H](C)O)C(C)C)[C@@H](C)O, also called compound 97) | 104 | 58.9 nM |
| K([AEEA-C20 diacid])CNTATCATQRLANFLRHSSPNFGAIPSSTNVGHNTY-NH2 (disulfide 2-7; N-terminus assumed; SMILES CC[C@H](C)[C@H](NC(=O)[C@H](C)NC(=O)CNC(=O)[C@H](Cc1ccccc1)NC(=O)[C@H](CC(N)=O)NC(=O)[C@@H]1CCCN1C(=O)[C@H](CO)NC(=O)[C@H](CO)NC(=O)[C@H](Cc1c[nH]cn1)NC(=O)[C@H](CCCNC(=N)N)NC(=O)[C@H](CC(C)C)NC(=O)[C@H](Cc1ccccc1)NC(=O)[C@H](CC(N)=O)NC(=O)[C@H](C)NC(=O)[C@H](CC(C)C)NC(=O)[C@H](CCCNC(=N)N)NC(=O)[C@H](CCC(N)=O)NC(=O)[C@@H](NC(=O)[C@H](C)NC(=O)[C@@H]1CSSC[C@H](NC(=O)[C@@H](N)CCCCNC(=O)COCCOCCNC(=O)CCCCCCCCCCCCCCCCCCC(=O)O)C(=O)N[C@@H](CC(N)=O)C(=O)N[C@@H]([C@@H](C)O)C(=O)N[C@@H](C)C(=O)N[C@@H]([C@@H](C)O)C(=O)N1)[C@@H](C)O)C(=O)N1CCC[C@H]1C(=O)N[C@@H](CO)C(=O)N[C@@H](CO)C(=O)N[C@H](C(=O)N[C@@H](CC(N)=O)C(=O)N[C@H](C(=O)NCC(=O)N[C@@H](Cc1c[nH]cn1)C(=O)N[C@@H](CC(N)=O)C(=O)N[C@H](C(=O)N[C@@H](Cc1ccc(O)cc1)C(N)=O)[C@@H](C)O)C(C)C)[C@@H](C)O, also called compound 91) [N^ε1-[2-[2-[2-(19-carboxynonadecanoylamino)ethoxy]ethoxy]acetyl]-[Arg17,Pro21,Pro27,His34]-h-amylin] | 101 | 12 nM |

Continued, values first:

| Ratio hCT/hAmylin binding [1] | IC50 [2] | Binder |
| --- | --- | --- |
| 17.6 | 2.13 nM | K([γGlu-γGlu-C20 diacid])CNTATCATQRLAEFLRHSSPNFGAIPSSTNVGPETY-NH2 (disulfide 2-7; N-terminus assumed; SMILES CC[C@H](C)[C@H](NC(=O)[C@H](C)NC(=O)CNC(=O)[C@H](Cc1ccccc1)NC(=O)[C@H](CC(N)=O)NC(=O)[C@@H]1CCCN1C(=O)[C@H](CO)NC(=O)[C@H](CO)NC(=O)[C@H](Cc1c[nH]cn1)NC(=O)[C@H](CCCNC(=N)N)NC(=O)[C@H](CC(C)C)NC(=O)[C@H](Cc1ccccc1)NC(=O)[C@H](CCC(=O)O)NC(=O)[C@H](C)NC(=O)[C@H](CC(C)C)NC(=O)[C@H](CCCNC(=N)N)NC(=O)[C@H](CCC(N)=O)NC(=O)[C@@H](NC(=O)[C@H](C)NC(=O)[C@@H]1CSSC[C@H](NC(=O)[C@@H](N)CCCCNC(=O)CC[C@H](NC(=O)CC[C@H](NC(=O)CCCCCCCCCCCCCCCCCCC(=O)O)C(=O)O)C(=O)O)C(=O)N[C@@H](CC(N)=O)C(=O)N[C@@H]([C@@H](C)O)C(=O)N[C@@H](C)C(=O)N[C@@H]([C@@H](C)O)C(=O)N1)[C@@H](C)O)C(=O)N1CCC[C@H]1C(=O)N[C@@H](CO)C(=O)N[C@@H](CO)C(=O)N[C@H](C(=O)N[C@@H](CC(N)=O)C(=O)N[C@H](C(=O)NCC(=O)N1CCC[C@H]1C(=O)N[C@@H](CCC(=O)O)C(=O)N[C@H](C(=O)N[C@@H](Cc1ccc(O)cc1)C(N)=O)[C@@H](C)O)C(C)C)[C@@H](C)O) |
| 51.6 | 4.63 nM | K([γGlu-C20 diacid])CNTATCATQRLAHFLRHSSPNFGAIPSSTNVGPNTY-NH2 (disulfide 2-7; N-terminus assumed; SMILES CC[C@H](C)[C@H](NC(=O)[C@H](C)NC(=O)CNC(=O)[C@H](Cc1ccccc1)NC(=O)[C@H](CC(N)=O)NC(=O)[C@@H]1CCCN1C(=O)[C@H](CO)NC(=O)[C@H](CO)NC(=O)[C@H](Cc1c[nH]cn1)NC(=O)[C@H](CCCNC(=N)N)NC(=O)[C@H](CC(C)C)NC(=O)[C@H](Cc1ccccc1)NC(=O)[C@H](Cc1c[nH]cn1)NC(=O)[C@H](C)NC(=O)[C@H](CC(C)C)NC(=O)[C@H](CCCNC(=N)N)NC(=O)[C@H](CCC(N)=O)NC(=O)[C@@H](NC(=O)[C@H](C)NC(=O)[C@@H]1CSSC[C@H](NC(=O)[C@@H](N)CCCCNC(=O)CC[C@H](NC(=O)CCCCCCCCCCCCCCCCCCC(=O)O)C(=O)O)C(=O)N[C@@H](CC(N)=O)C(=O)N[C@@H]([C@@H](C)O)C(=O)N[C@@H](C)C(=O)N[C@@H]([C@@H](C)O)C(=O)N1)[C@@H](C)O)C(=O)N1CCC[C@H]1C(=O)N[C@@H](CO)C(=O)N[C@@H](CO)C(=O)N[C@H](C(=O)N[C@@H](CC(N)=O)C(=O)N[C@H](C(=O)NCC(=O)N1CCC[C@H]1C(=O)N[C@@H](CC(N)=O)C(=O)N[C@H](C(=O)N[C@@H](Cc1ccc(O)cc1)C(N)=O)[C@@H](C)O)C(C)C)[C@@H](C)O, also called compound 67) |
| 145 | 26 nM | K([γGlu-γGlu-C20 diacid])CNTATCATQRLAHFLRHSSPNFGAIPSSTNVGSNTY-NH2 (disulfide 2-7; N-terminus assumed; SMILES CC[C@H](C)[C@H](NC(=O)[C@H](C)NC(=O)CNC(=O)[C@H](Cc1ccccc1)NC(=O)[C@H](CC(N)=O)NC(=O)[C@@H]1CCCN1C(=O)[C@H](CO)NC(=O)[C@H](CO)NC(=O)[C@H](Cc1c[nH]cn1)NC(=O)[C@H](CCCNC(=N)N)NC(=O)[C@H](CC(C)C)NC(=O)[C@H](Cc1ccccc1)NC(=O)[C@H](Cc1c[nH]cn1)NC(=O)[C@H](C)NC(=O)[C@H](CC(C)C)NC(=O)[C@H](CCCNC(=N)N)NC(=O)[C@H](CCC(N)=O)NC(=O)[C@@H](NC(=O)[C@H](C)NC(=O)[C@@H]1CSSC[C@H](NC(=O)[C@@H](N)CCCCNC(=O)CC[C@H](NC(=O)CC[C@H](NC(=O)CCCCCCCCCCCCCCCCCCC(=O)O)C(=O)O)C(=O)O)C(=O)N[C@@H](CC(N)=O)C(=O)N[C@@H]([C@@H](C)O)C(=O)N[C@@H](C)C(=O)N[C@@H]([C@@H](C)O)C(=O)N1)[C@@H](C)O)C(=O)N1CCC[C@H]1C(=O)N[C@@H](CO)C(=O)N[C@@H](CO)C(=O)N[C@H](C(=O)N[C@@H](CC(N)=O)C(=O)N[C@H](C(=O)NCC(=O)N[C@@H](CO)C(=O)N[C@@H](CC(N)=O)C(=O)N[C@H](C(=O)N[C@@H](Cc1ccc(O)cc1)C(N)=O)[C@@H](C)O)C(C)C)[C@@H](C)O, also called compound 92) |
